Reference: PMC3472557, “Structural Basis for ASPP2 Recognition by the Tumor Suppressor p73” (Journal of Molecular Biology, 2012)

Target: T1, ankyrin repeat and SH3 domains of human ASPP2 (residues P891–A1128) (human, UniProt Q13625 891-1128)
T1 construct: ASPP2 (53BP2), human, ankyrin repeat and SH3 domains, residues P891-A1128, UniProt Q13625; cloned into pCOEX-LIC1; The limits are stated for the crystallised construct; also called 53BP2; source: E. coli BL21(DE3) R3 pRARE, purified (nickel-Sepharose, TEV protease, HiTrap Q, Superdex 200); not shown: His6, N-terminal, cleaved
T1 sequence (looked up): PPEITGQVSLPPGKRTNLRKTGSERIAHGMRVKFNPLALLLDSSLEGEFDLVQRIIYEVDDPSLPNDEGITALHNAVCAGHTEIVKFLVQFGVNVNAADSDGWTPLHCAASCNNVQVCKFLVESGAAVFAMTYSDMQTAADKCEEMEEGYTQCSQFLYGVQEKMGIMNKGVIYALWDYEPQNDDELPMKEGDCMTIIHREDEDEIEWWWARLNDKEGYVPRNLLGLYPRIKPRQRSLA
Assay: native gel or EMSA; 20 uM ASPP2 with decreasing concentrations of p73 112-315; 4 °C overnight; 50 mM sodium phosphate, pH 7.2, 50 mM NaCl, 5 mM DTT, 50 mM L-arginine, 50 mM L-glutamate; 10% polyacrylamide gel in Tris-glycine, pH 8.3, Coomassie stain
Details: both partners purified

binding result: binds
B1: p73 DBD (p73 amino acids 112–315) (domain or fragment, human, UniProt O15350 112-315, looked up)
chain: APVIPSNTDYPGPHHFEVTFQQSSTAKSATWTYSPLLKKLYCQIAKTCPIQIKVSTPPPPGTAIRAMPVYKKAEHVTDVVKRCPNHELGRDFNEGQSAPASHLIRVEGNNLSQYVDDPVTGRQSVVVPYEPPQVGTEFTTILYNFMCNSSCVGGMNRRPILIIITLEMRDGQVLGRRSFEGRICACPGRDRKADEDHYREQQAL
notes: It may be a misprint for 112-311; source: E. coli BL21(DE3) R3 pRARE, purified (said of all proteins)
